Measurements taken from patent US20240376207A1 (JIANGSU HENGRUI PHARMACEUTICALS, published 2024).

T1: his-tagged human PVRIG (h-PVRIG-his) recombinant protein (human, UniProt Q6DKI7 41-171, limits assumed)
T1 construct: bought from Acrobiosystems; also called Human PVRIG-his; human PVRIG recombinant protein; not shown: his tag
T1 sequence (looked up): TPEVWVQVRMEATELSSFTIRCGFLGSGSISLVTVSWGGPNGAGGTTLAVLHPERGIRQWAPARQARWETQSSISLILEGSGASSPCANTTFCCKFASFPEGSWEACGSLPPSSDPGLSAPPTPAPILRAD

T2: his-tagged cynomolgus monkey PVRIG (cyno-PVRIG-his) recombinant protein (cynomolgus monkey)
T2 construct: expressed in HEK293, purified by Ni-NTA; also called Monkey PVRIG-his; cynomolgus monkey PVRIG recombinant protein
T2 chain: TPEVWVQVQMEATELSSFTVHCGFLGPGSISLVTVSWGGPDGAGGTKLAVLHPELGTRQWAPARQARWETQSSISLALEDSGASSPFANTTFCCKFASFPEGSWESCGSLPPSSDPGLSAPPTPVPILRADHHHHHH

T3: human PVRIG expressed on cells (human, UniProt Q6DKI7 41-326)
T3 sequence (looked up): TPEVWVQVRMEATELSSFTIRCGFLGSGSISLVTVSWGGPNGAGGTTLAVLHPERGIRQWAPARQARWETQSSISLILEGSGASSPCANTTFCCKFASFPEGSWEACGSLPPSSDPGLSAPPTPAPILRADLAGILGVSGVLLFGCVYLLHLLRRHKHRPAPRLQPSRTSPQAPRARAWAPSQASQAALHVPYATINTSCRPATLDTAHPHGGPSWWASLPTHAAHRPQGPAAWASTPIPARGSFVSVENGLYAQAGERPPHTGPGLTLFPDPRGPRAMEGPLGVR

T4: mouse IgG2a Fc-tagged human PVRIG (h-PVRIG-mIgG2a Fc) recombinant protein (human, UniProt Q6DKI7 41-171, limits assumed)
T4 construct: bought from Acrobiosystems; not shown: mouse IgG2a Fc tag
T4 sequence (looked up): T1 sequence (looked up)

B1: humanized anti-PVRIG/TIGIT bispecific antibody 1708-20H5 (bispecific antibody, human IgG4 S228P, kappa)
heavy: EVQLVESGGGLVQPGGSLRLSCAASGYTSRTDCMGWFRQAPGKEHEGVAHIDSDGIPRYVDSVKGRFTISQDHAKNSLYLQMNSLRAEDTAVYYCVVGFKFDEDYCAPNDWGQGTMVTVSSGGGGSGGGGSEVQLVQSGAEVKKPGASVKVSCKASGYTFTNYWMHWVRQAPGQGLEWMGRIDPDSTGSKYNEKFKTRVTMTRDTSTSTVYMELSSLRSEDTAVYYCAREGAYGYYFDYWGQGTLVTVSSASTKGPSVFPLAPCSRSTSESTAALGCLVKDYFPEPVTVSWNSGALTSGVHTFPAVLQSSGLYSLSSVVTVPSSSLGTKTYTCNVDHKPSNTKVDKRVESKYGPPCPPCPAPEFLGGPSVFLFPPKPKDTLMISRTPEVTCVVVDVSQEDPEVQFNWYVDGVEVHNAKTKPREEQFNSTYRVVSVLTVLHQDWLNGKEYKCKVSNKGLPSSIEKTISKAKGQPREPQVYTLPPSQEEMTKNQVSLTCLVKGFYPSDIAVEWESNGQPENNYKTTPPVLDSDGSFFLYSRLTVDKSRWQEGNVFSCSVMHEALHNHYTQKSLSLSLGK
light: DIQMTQSPSSLSASVGDRVTITCRASENIYSYLAWYQQKPGKSPKLLIYNARTLAEGVPSRFSGSGSGTDFTLTISSLQPEDFATYYCQYHSGSPLPFGGGTKVEIKRTVAAPSVFIFPPSDEQLKSGTASVVCLLNNFYPREAKVQWKVDNALQSGNSQESVTEQDSKDSTYSLSSTLTLSKADYEKHKVYACEVTHQGLSSPVTKSFNRGEC
B2: humanized anti-PVRIG/TIGIT bispecific antibody 1708-30H2 (bispecific antibody, human IgG4 S228P, kappa)
heavy: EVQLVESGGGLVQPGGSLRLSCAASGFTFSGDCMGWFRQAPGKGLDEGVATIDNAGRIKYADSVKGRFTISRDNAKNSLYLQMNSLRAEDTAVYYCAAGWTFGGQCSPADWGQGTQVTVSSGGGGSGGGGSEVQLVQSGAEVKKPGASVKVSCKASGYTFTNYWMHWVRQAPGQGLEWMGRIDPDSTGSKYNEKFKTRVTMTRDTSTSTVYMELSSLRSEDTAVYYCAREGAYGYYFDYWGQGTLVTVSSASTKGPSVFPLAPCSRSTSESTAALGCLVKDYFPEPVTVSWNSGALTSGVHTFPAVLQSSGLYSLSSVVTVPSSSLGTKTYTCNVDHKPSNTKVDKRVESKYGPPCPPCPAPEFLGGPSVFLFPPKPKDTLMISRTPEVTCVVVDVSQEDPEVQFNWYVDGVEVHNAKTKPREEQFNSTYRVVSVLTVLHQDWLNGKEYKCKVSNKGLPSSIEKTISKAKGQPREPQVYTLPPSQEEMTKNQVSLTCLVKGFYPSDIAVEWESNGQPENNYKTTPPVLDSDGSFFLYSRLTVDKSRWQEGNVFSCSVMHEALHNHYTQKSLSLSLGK
light: B1 light
B3: positive antibody Tab5 (antibody, human IgG4 S228P, kappa, F234A L235A, V domains shown)
VH: EVQLVESGGGVVKPGGSLRLSCAASGFTFGTSSMNWVRQAPGKGLEWVAVISFDGTEIHYADSVKGRFTISRDNSKSTVFLQMNSLRPDDTALYYCAKGSGNIYFYSGMDVWGQGTTVTVSS
VL: DIQMTQSPSTLSASVGDRVTITCRAGQSISGWLAWFQQKPGKAPNLLIYETSTLESGVPSRFSGSGSGTEYTLTISSLQPDDFATYYCQQYYSYPLTFGQGTKVEIKR
notes: Variable regions of CPA.7.021 (WO2016134333A1) on human IgG4 (S228P/F234A/L235A/K447A) and human kappa constant regions
B4: anti-PVRIG antibody 30 (antibody, human IgG4 S228P, F234A L235A, V domains shown)
VH: HVQLVESGGGSVQAGGSLRLSCEASGYSYSGDCMGWFRRAPGKERDEGVATIDNAGRIKYADSVKGRFTISHGNGKYILYLQMNSLKPEDTDMYYCAAGWTFGGNCSPADWGQGTQVTVSS
notes: no light chain
B5: anti-PVRIG antibody 38 (antibody, human IgG4 S228P, F234A L235A, V domains shown)
VH: QVQLVESGGGSVQAGGSLRLSCAASPSTYGPSDMAWFRQAPGKQREGVATISAAGRLTYYTDSVRGRFTISRDNAKNTMYLQMNSLKPEDTAMYYCAADFAGGSSLFADYKYWGQGTQVTVSS
notes: no light chain
B6: anti-PVRIG antibody 39 (antibody, human IgG4 S228P, F234A L235A, V domains shown)
VH: QVQLVESGGGSVQAGGSLRLSCAASRYTSRTDCMGWFRQAPGKEREGVAHIDSDGIPRYVESVKGRFTISQDHAKNTLYLQMNSLKPEDSATYYCVVGFKFGDYCAPNDWGQGTQVTVSS
notes: no light chain
B7: anti-PVRIG antibody 151 (antibody, human IgG4 S228P, F234A L235A, V domains shown)
VH: HVQLVESGGGSVQAGGSLRLSCVASASGFTYRPYCMAWFRQAPGKEREAVAGIDIFGGTTYADSVKGRFTASRDNAGFSLFLQMNDLKPEDTAMYYCAAGDSPDGRCPPLGQGLNYWGQGTQVTVSS
notes: no light chain

Target: T1, his-tagged human PVRIG (h-PVRIG-his) …
Experiment: ELISA, coated antigen
Experimental: (§1) A human, cynomolgus monkey, or mouse PVRIG protein (at a concentration of 1 μg/mL) was coated on a 96-well microplate at 100 μL per well, and incubated overnight at 4° C. The plate was washed three times with wash buffer at 250 μL per well. For each wash, the plate was shaken for 10 s to ensure adequate cleaning. A blocking solution (PBS+0.05% Tween20+1% BSA) was added at 300 μL/well, and the plate was incubated at room temperature for 1 h. The plate was washed three times with wash buffer at 250 μL per well. For each wash, the plate was shaken for 10 s to ensure adequate cleaning. Dilutions of the test anti-PVRIG antibodies were added at 100 μL/well. The plate was incubated at 37° C. for 1 h. The plate was washed three times with wash buffer at 250 μL per well. The […] anti-human IgG secondary antibody (Sigma, A8667) was added at 100 μL per well. The plate was incubated at 37° C. for 1 h. The plate was washed three times with wash buffer at 250 μL per well. TMB was added at 100 μL/well, and the plate was incubated in the dark for 15 min. 0.16 M sulfuric acid was added at 50 μL/well. The OD values at 450 nm were read by using a Thermo MultiSkanFc microplate reader, and the EC₅₀ values of the binding of the anti-PVRIG antibodies to PVRIG were calculated.
(§2) Binding of the humanized anti-PVRIG/TIGIT bispecific antibodies to human and cynomolgus monkey PVRIG and their blocking of the ligand of human PVRIG were detected according to the methods of Examples 4, 5 and 6.

Row | EC50 [nM] | Binder
1 | 2.47 | B1
2 | 0.32 | B2
3 | 1.41 | B3

Target: T2, his-tagged cynomolgus monkey PVRIG …
Experiment: ELISA, coated antigen
Experimental: as §1, §2

Row | EC50 [nM] | binding result | Binder
4 | 0.144 |  | B1
5 | 0.184 |  | B2
6 |  | no binding | B3

Target: T3, human PVRIG expressed on cells
Experiment: cell-based or functional assay

Row | Binder | NK92 killing of K562, killing activity (%), 20 nM antibody [%] | NK92 killing of K562, killing activity (%), 100 nM antibody [%]
7 | B4 | 36 | 39
8 | B5 | 29 | 27
9 | B3 | 32 | 32
10 | B6 | 32 | 30
11 | B7 | 35 | 33

Target: T3, human PVRIG expressed on cells
Experiment: FACS, cells overexpressing target
Experimental: The expression plasmid carrying human or cynomolgus monkey PVRIG gene sequence was transfected into HEK293 cells, and the over-expressing stable transfection monoclonal cell strain was obtained by antibiotic screening and infinite dilution. Overexpressing cells were seeded into a 96-well plate at 2×10⁵ cells/per well. The cells were centrifuged at 300 g for 5 min, the supernatant was then removed, 100 μL of the test antibody was added, and the mixture was incubated at 4° C. for 1 h. The mixture was centrifuged, the supernatant was removed, the plate was washed 3 times with 200 μL of wash buffer (PBS+2% FBS), and then 100 μL of an anti-human IgG secondary antibody (Invitrogen, A-11013) labeled with Alexa Fluor 488 diluted at 1:500 was added. The mixture was incubated at 4° C. for 1 h. The plate was centrifuged, and the supernatant was removed. The plate was washed 3 times with 200 μL of wash buffer (PBS+2% FBS). The cells were resuspended in 100 μL of PBS and tested on a flow cytometer (BD FACS Calibur or BD FACS Canto_II).
as §2

Row | EC50 [nM] | Binder
12 | 0.075 | B1
13 | 0.056 | B2
14 | 0.789 | B3

Target: T4, mouse IgG2a Fc-tagged human PVRIG …
Experiment: competition ELISA; coated h-PVRIG-mIgG2a Fc, competitor his-PVRL2
Experimental: In this experiment, by in vitro blocking experiment, the ability of the selected anti-PVRIG antibodies to block the binding of human PVRIG to its ligand human PVRL2 was detected. Specifically, a mouse IgG2a Fc-tagged human PVRIG recombinant protein (h-PVRIG-mIgG2a Fc) was coated on a 96-well microplate, an anti-PVRIG antibody was added to fully bind to and occupy an epitope, then his-tagged PVRL2 (PV2-H52E2, AcroBiosystem) was added, and the binding amount of PVRIG and PVRL2 was calculated by detecting the his tag. The IC₅₀ value of the anti-PVRIG antibody for blocking the PVRIG active site was calculated.
The h-PVRIG-mIgG2a Fc protein (at a concentration of 1 μg/mL) was coated on the 96-well microplate at 100 μL per well, and incubated overnight at 4° C. The plate was washed three times with wash buffer at 250 μL per well. For each wash, the plate was shaken for 10 s to ensure adequate cleaning. A blocking solution was added at 300 μL/well, and the plate was incubated at room temperature for 1 h. The plate was washed three times with wash buffer at 250 μL per well. For each wash, the plate was shaken for 10 s to ensure adequate cleaning. 50 μL of diluted test anti-PVRIG antibody and 50 μL of his-tagged ligand PVRL2 were added to each well, and the plate was incubated at 37° C. for 1 h. The plate was washed three times with wash buffer at 250 μL per well. The HRP-labeled anti-his-tagged secondary antibody (Genscrpit) diluted at 1:2000 was added at 100 μL per well. The plate was incubated at 37° C. for 1 h. The plate was washed three times with wash buffer at 250 μL per well. TMB was added at 100 μL/well, and the plate was incubated in the dark for 15 min. 0.16 M sulfuric acid was added at 50 μL/well. OD values at 450 nm were measured using a Thermo MμtLtiSkanFc microplate reader, and the IC₅₀ values of the anti-PVRIG antibodies blocking the binding of PVRIG to PVRL2 were calculated.

Row | IC50 [nM] | Binder
15 | 1.11 | B4
16 | 0.93 | B5
17 | 1.16 | B3
18 | 0.76 | B6
19 | 0.37 | B7
